Data as given in patent publication US12570744 (AstraZeneca / MedImmune, dated 2026).

Tests used:
[1] = biological target: T1, human PD-1 expressed on the cell surface of engineered Jurkat cells (human, UniProt Q15116 25-288); assay: flow cytometry on PD-1^+TIGIT^- Jurkat cells, mean
T1 construct: whole, on cells; also called Jurkat PD-1^+TIGIT^- cells; PD-1^+ Jurkat cells

[2] = biological target: T2, cynomolgus TIGIT overexpressed on 293 cells (cynomolgus, UniProt A0A7N9I9V4 89-312); assay: flow cytometry (MFI) on 293 cells overexpressing cynomolgus TIGIT; Kd row of the table under the graph, the concentration axis is [nM]
T2 construct: whole, on cells

[3] = biological target: T3, human TIGIT expressed on the cell surface (human, UniProt Q495A1 22-244); assay: flow cytometry on TIGIT^+ Jurkat cells, Experiment #1
T3 construct: whole, on cells; also called Jurkat PD-1^-TIGIT^+ cells; TIGIT^+ Jurkat cells
T3 sequence (looked up): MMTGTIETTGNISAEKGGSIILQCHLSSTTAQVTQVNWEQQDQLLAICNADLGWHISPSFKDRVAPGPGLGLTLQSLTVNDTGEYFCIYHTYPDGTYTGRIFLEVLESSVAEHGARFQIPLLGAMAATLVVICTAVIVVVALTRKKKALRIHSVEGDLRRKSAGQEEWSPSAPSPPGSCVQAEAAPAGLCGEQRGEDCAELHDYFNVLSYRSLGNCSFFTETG

[4] = biological target: T1, human PD-1 expressed on the cell …; assay: flow cytometry on PD-1^+ Jurkat cells, mean of two experiments
[5] = biological target: T4, human PD-1 and human TIGIT co-expressed on Jurkat PD-1^+TIGIT^+ cells (human, UniProt Q15116 25-288; Q495A1 22-244); assay: flow cytometry on PD-1^+TIGIT^+ Jurkat cells, Experiment #2
T4 construct: whole, on cells; Two separate receptors on one cell, not a complex; It serves as the target where the read-out cannot be split between PD-1 and TIGIT; also called PD-1^+TIGIT^+ Jurkat; double expressing Jurkat
From the text: (§1) TIGIT⁻ cells. […] MFI=geometric mean fluorescence intensity; PD-1=programmed cell-death protein 1; TIGIT=T cell immunoreceptor with Ig and immunoreceptor tyrosine-based inhibitory motif domains. Cellular binding to human single expressing cell lines: Jurkat PD-1⁻ TIGIT⁺ and Jurkat PD-1⁺TIGIT⁻ or human double expressing Jurkat PD-1⁺ TIGIT⁺. Test and control article antibodies were detected with fluorescently conjugated goat anti human IgG secondary antibody and evaluated by flow cytometry.

[6] = biological target: T3, human TIGIT expressed on the cell …; assay: flow cytometry on TIGIT^+ Jurkat cells, Experiment #2
[7] = biological target: T5, cyTIGIT (cynomolgus TIGIT, recombinant) (cynomolgus, UniProt A0A7N9I9V4 89-209); assay: SPR (BIAcore T200), PD-1/TIGIT DuetMab sample, cyTIGIT as ligand
T5 construct: Ligand in the BIAcore assay; The construct is not described
Protocol: (§2) Binding experiments were carried out using a BIAcore T200 instrument (BIAcore).

[8] = biological target: T1, human PD-1 expressed on the cell …; assay: flow cytometry on PD-1^+ Jurkat cells, Experiment #1
[9] = biological target: T3, human TIGIT expressed on the cell …; assay: flow cytometry on TIGIT^+ Jurkat cells
[10] = biological target: T1, human PD-1 expressed on the cell …; assay: flow cytometry on PD-1^+ Jurkat cells, Experiment #2
[11] = biological target: T3, human TIGIT expressed on the cell …; assay: cell-based or functional assay
[12] = biological target: T3, human TIGIT expressed on the cell …; assay: flow cytometry on PD-1^-TIGIT^+ Jurkat cells, mean
From the text: as §1

[13] = biological target: T3, human TIGIT expressed on the cell …; assay: flow cytometry on TIGIT^+ Jurkat cells, mean of two experiments
[14] = biological target: T6, recombinant human TIGIT protein (human, UniProt Q495A1 22-141); assay: SPR (BIAcore T200), PD-1/TIGIT DuetMab sample, huTIGIT as ligand
T6 construct: In the Octet assay it was used biotinylated on streptavidin sensors or in solution; Construct and tags are not described; also called huTIGIT; human TIGIT antigen
T6 sequence (looked up): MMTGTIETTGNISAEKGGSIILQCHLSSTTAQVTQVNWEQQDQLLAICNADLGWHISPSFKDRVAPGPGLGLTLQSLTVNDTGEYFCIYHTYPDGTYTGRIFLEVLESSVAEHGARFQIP
Protocol: as §2

[15] = biological target: T1, human PD-1 expressed on the cell …; assay: cell-based or functional assay
[16] = biological target: T1, human PD-1 expressed on the cell …; assay: flow cytometry on PD-1^+TIGIT^- Jurkat cells, Experiment #2
[17] = biological target: T3, human TIGIT expressed on the cell …; assay: flow cytometry on PD-1^-TIGIT^+ Jurkat cells, Experiment #2
From the text: as §1

[18] = biological target: T1, human PD-1 expressed on the cell …; assay: flow cytometry on PD-1^+TIGIT^- Jurkat cells, Experiment #1
[19] = biological target: T3, human TIGIT expressed on the cell …; assay: flow cytometry (MFI) on 293 cells overexpressing human TIGIT; Kd row of the table under the graph, the concentration axis is [nM]
[20] = biological target: T4, human PD-1 and human TIGIT co-expressed …; assay: cell-based or functional assay
[21] = biological target: T4, human PD-1 and human TIGIT co-expressed …; assay: flow cytometry on PD-1^+TIGIT^+ Jurkat cells, Experiment #1; PD-1^+TIGIT^+ Jurkat cells, Experiment #1
From the text: as §1

[22] = biological target: T7, muTIGIT (mouse TIGIT, recombinant) (mouse (printed as 'mu'), UniProt P86176 29-148, limits assumed); assay: SPR (BIAcore T200), PD-1/TIGIT DuetMab sample, muTIGIT as ligand
T7 construct: Ligand in the BIAcore assay; The construct is not described
T7 sequence (looked up): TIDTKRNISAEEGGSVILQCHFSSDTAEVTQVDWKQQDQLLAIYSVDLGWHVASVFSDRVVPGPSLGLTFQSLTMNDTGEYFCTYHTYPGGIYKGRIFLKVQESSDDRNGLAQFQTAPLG
Protocol: as §2

[23] = biological target: T3, human TIGIT expressed on the cell …; assay: flow cytometry on PD-1^-TIGIT^+ Jurkat cells, Experiment #1
From the text: as §1

[24] = biological target: T4, human PD-1 and human TIGIT co-expressed …; assay: flow cytometry on PD-1^+TIGIT^+ Jurkat cells, mean
From the text: as §1

[25] = biological target: T1, human PD-1 expressed on the cell …; assay: flow cytometry on PD-1^+ Jurkat cells

T1 sequence (Q15116 25-288, change not shown): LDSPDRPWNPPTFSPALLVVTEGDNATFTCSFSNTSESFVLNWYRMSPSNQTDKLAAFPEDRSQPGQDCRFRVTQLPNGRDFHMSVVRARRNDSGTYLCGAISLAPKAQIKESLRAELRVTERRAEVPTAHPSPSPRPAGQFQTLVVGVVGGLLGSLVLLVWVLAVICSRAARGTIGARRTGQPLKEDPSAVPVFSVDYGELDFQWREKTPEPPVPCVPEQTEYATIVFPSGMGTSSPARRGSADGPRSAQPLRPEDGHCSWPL
T4 sequence (Q15116 25-288, one chain of several): as the sequence (Q15116 25-288, change not shown) above
T5 sequence (A0A7N9I9V4 entry or part of it): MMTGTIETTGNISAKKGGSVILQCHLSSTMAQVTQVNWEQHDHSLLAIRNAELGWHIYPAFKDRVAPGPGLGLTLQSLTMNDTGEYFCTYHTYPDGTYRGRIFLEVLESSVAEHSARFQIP
T2 sequence (A0A7N9I9V4 entry or part of it): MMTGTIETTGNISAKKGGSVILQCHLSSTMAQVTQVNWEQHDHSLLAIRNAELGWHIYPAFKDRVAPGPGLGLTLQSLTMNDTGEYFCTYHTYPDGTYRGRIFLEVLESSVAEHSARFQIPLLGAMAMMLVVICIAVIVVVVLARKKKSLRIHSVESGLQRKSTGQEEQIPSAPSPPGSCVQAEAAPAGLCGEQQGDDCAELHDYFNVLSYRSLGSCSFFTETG

B1: AZD2936 (PD-1/TIGIT bispecific DuetMab, LO115/VAR1 VHGL-VLGL(M-I)) (bispecific antibody, human IgG1, kappa, lambda)
heavy 1: EVQLVESGGGLVQPGGSLRLSCAASGFTFSDYGMHWVRQAPGKGLEWVAYISSGSYTIYSADSVKGRFTISRDNAKNSLYLQMNSLRAEDTAVYYCARRAPNSFYEYYFDYWGQGTTVTVSSASTKGPSVFPLAPSSKSTSGGTAALGCLVKDYFPEPVTVSWNSGALTSGVHTFPAVLQSSGLYSLSSVVTVPSSSLGTQTYICNVNHKPSNTKVDKRVEPKSCDKTHTCPPCPAPEFEGGPSVFLFPPKPKDTLMISRTPEVTCVVVDVSHEDPEVKFNWYVDGVEVHNAKTKPREEQYNSTYRVVSVLTVLHQDWLNGKEYKCKVSNKALPASIEKTISKAKGQPREPQVCTLPPSREEMTKNQVSLSCAVKGFYPSDIAVEWESNGQPENNYKTTPPVLDSDGSFFLVSKLTVDKSRWQQGNVFSCSVMHEALHNHYTQKSLSLSPGK
light 1: QIVLTQSPATLSLSPGERATLSCSASSKHTNLYWSRHMYWYQQKPGQAPRLLIYLTSNRATGIPARFSGSGSGTDFTLTISSLEPEDFAVYYCQQWSSNPFTFGQGTKLEIKRTVAAPSVFIFPPSDEQLKSGTASVVCLLNNFYPREAKVQWKVDNALQSGNSQESVTEQDSKDSTYSLSSTLTLSKADYEKHKVYACEVTHQGLSSPVTKSFNRGEC
heavy 2: not shown
light 2: not shown
notes: also called VAR1 (LO115/VHGL-VLGL(M-I)); VL GL (CDRL1 M-I) + VH GL
EC50 [1]: 0.797 nM | Kd [2]: 19.9 nM | EC50 [3]: 0.303 nM | EC50 [4]: 3.22 nM | EC50 [5]: 0.769 nM | EC50 [6]: 0.375 nM | Kd [7]: 41.1 nM | koff [7]: 0.0411 s⁻¹ | kon [7]: 999000 M⁻¹ s⁻¹ | EC50 [8]: 0.944 nM | Fold Change vs. anti-TIGIT (mean EC50) [9]: 2.85 fold | EC50 [10]: 5.49 nM | EC50 (nM), NFAT-luciferase reporter, Experiment #1 [11]: 17 nM | EC50 (nM), NFAT-luciferase reporter, Experiment #2 [11]: 13.7 nM | Fold Change of Mean EC50 vs. Anti-TIGIT [11]: 6.89 fold | Mean EC50 (nM), NFAT-luciferase reporter [11]: 15.3 nM | EC50 [12]: 0.314 nM | EC50 [13]: 0.339 nM | Kd [14]: 0.015 nM | koff [14]: 6.57e-05 s⁻¹ | kon [14]: 4.37e+06 M⁻¹ s⁻¹ | EC50 (nM), NFAT-luciferase reporter, Experiment #1 [15]: 4.7 nM | EC50 (nM), NFAT-luciferase reporter, Experiment #2 [15]: 3.83 nM | Fold Change of Mean EC50 vs. Anti-PD-1 [15]: 1.4 fold | Mean EC50 (nM), NFAT-luciferase reporter [15]: 4.26 nM | EC50 [16]: 1.01 nM | EC50 [17]: 0.346 nM | EC50 [18]: 0.584 nM | Kd [19]: 3.42 nM | EC50 (nM), NFAT-luciferase reporter, Experiment #1 [20]: 5.57 nM | EC50 (nM), NFAT-luciferase reporter, Experiment #2 [20]: 6.07 nM | Fold Change of Mean EC50 vs. Anti-TIGIT and Anti-PD-1 combination [20]: 0.93 fold | Mean EC50 (nM), NFAT-luciferase reporter [20]: 5.82 nM | EC50 [21]: 0.495 nM | Kd [22]: 2.9 nM | koff [22]: 0.00631 s⁻¹ | kon [22]: 2.17e+06 M⁻¹ s⁻¹ | EC50 [23]: 0.282 nM | EC50 [24]: 0.632 nM | Fold Change vs. anti-PD-1 (mean EC50) [25]: 4.82 fold
